Where no end group is shown, it is not given here.
Molecular target: FGFR1c extracellular domain-IgG fusion protein (human) (UniProt P11362)
Assay: BIAcore real-time kinetic analysis, immobilized FGFR1c ECD, no heparin; approximate apparent affinity

Sequence of FGFR1c extracellular domain-IgG fusion protein (human) (P11362 22-377): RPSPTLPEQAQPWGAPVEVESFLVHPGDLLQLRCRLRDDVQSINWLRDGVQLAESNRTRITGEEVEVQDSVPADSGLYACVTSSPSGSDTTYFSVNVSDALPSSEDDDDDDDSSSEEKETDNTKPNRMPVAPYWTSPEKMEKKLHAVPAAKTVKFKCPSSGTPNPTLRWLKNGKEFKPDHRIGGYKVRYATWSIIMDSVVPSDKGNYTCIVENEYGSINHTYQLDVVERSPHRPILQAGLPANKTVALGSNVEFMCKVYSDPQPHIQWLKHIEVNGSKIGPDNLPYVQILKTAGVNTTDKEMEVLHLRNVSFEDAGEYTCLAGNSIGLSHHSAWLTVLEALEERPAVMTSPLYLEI

B1: C19-Ig fusion protein (Fc fusion, part only; not given: linkers and human IgG1 Fc, not shown: a dimerising Fc or GST)
chain, part: AESGDDYCVLVFTDSAWTKICDWSHFRN
modifications: cysteine pairing not given here; also: homodimer, fused to Fc of human IgG1
**Q.** How did the Kd turn out when B1 was run?
**A.** 90 nM

From US20040054131A1
